Legend:
DND1 1-230 (RRM1-RRM2) = target: T1, DND1 1-230 (RRM1-RRM2) (human, UniProt Q8IYX4 1-230); test: MST; MST: 20 mM HEPES pH 7.4, 150 mM NaCl, 1 mM DTT, 0.05% Tween20 and 10 ug/mL yeast tRNA after 1:1 mixing, 5 nM Cy5-RNA, partner 2 uM final, 30 min at room temperature, measured at 25 C; details: protein: recombinant; tags: His6-SUMO removed by Ulp1; N-terminal Ser (residue 0) from BamHI site; label: 5'-Cy5
T1 sequence: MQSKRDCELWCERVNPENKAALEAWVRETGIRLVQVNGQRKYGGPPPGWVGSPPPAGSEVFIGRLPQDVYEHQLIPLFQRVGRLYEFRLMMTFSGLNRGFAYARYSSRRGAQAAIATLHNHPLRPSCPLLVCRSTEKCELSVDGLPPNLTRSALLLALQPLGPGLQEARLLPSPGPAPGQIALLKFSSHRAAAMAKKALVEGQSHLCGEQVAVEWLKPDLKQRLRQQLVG

[1] = target: DND1 1-230 (RRM1-RRM2);NANOS3 ZF+C (human;human, UniProt Q8IYX4;P60323 1-230;55-173, |); test: MST; DND1 titrated, 2 uM NANOS3 ZF+C; MST: 20 mM HEPES pH 7.4, 150 mM NaCl, 1 mM DTT, 0.05% Tween20 and 10 ug/mL yeast tRNA after 1:1 mixing, 5 nM Cy5-RNA, partner 2 uM final, 30 min at room temperature, measured at 25 C; details: protein: recombinant;recombinant; tags: His6-SUMO removed by Ulp1; N-terminal Ser (residue 0) from BamHI site;His6-SUMO removed by Ulp1; N-terminal Ser (residue 54) from BamHI site; copies: 1;1; label: 5'-Cy5
DND1 1-230 (RRM1-RRM2);NANOS3 ZF+C, sequence (P60323 55-173, chain 2 of 2, one chain of several): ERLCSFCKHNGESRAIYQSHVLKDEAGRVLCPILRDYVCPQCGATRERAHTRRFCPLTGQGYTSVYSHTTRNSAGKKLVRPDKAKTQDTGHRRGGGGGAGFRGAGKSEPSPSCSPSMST

DND1 K196A;NANOS3 ZF+C = DND1 K196A;NANOS3 ZF+C (human;human, UniProt Q8IYX4;P60323 1-230;55-173, K196A|); test: as above; details: protein: recombinant;recombinant; tags: His6-SUMO removed by Ulp1;His6-SUMO removed by Ulp1; N-terminal Ser (residue 54) from BamHI site; copies: 1;1; label: 5'-Cy5
DND1 K196A;NANOS3 ZF+C, sequence (Q8IYX4 1-230 K196A, chain 1 of 2): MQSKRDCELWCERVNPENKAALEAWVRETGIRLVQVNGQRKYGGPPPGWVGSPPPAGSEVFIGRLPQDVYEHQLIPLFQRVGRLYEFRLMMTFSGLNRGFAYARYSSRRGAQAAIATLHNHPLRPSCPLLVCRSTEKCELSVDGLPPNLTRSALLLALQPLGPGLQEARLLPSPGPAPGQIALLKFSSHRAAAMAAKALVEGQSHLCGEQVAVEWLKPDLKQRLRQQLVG
DND1 K196A;NANOS3 ZF+C, sequence (P60323 55-173, chain 2 of 2): as the sequence (P60323 55-173, chain 2 of 2, one chain of several) above

DND1 13-230 (del1-12) = target: T2, DND1 13-230 (del1-12) (human, UniProt Q8IYX4 13-230, del1-12); test: MST; MST: 20 mM HEPES pH 7.4, 150 mM NaCl, 1 mM DTT, 0.05% Tween20 and 10 ug/mL yeast tRNA after 1:1 mixing, 5 nM Cy5-RNA, partner 2 uM final, 30 min at room temperature, measured at 25 C; details: protein: recombinant; tags: His6-SUMO removed by Ulp1; label: 5'-Cy5
T2 sequence: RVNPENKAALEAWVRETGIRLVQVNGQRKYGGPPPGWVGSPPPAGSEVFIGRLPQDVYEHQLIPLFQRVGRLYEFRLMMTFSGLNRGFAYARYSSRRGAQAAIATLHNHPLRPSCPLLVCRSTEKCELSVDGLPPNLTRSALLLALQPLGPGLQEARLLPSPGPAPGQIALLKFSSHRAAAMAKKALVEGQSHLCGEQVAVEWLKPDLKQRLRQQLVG

[2] = target: DND1 13-230 (del1-12);NANOS3 ZF (ZF1-ZF2) (human;human, UniProt Q8IYX4;P60323 13-230;55-113, del1-12|); test: MST; DND1 titrated, 2 uM NANOS3 ZF; MST: 20 mM HEPES pH 7.4, 150 mM NaCl, 1 mM DTT, 0.05% Tween20 and 10 ug/mL yeast tRNA after 1:1 mixing, 5 nM Cy5-RNA, partner 2 uM final, 30 min at room temperature, measured at 25 C; details: protein: recombinant;recombinant; tags: His6-SUMO removed by Ulp1;His6-SUMO removed by Ulp1; N-terminal Ser (residue 54) from BamHI site; copies: 1;1; label: 5'-Cy5
DND1 13-230 (del1-12);NANOS3 ZF (ZF1-ZF2), sequence (P60323 55-113, stated change not applied, chain 2 of 2, one chain of several): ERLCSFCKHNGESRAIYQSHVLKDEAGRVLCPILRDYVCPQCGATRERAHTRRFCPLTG

DND1 H189A;NANOS3 ZF+C = DND1 H189A;NANOS3 ZF+C (human;human, UniProt Q8IYX4;P60323 1-230;55-173, H189A|); test: MST; DND1 titrated, 2 uM NANOS3 ZF+C; MST: 20 mM HEPES pH 7.4, 150 mM NaCl, 1 mM DTT, 0.05% Tween20 and 10 ug/mL yeast tRNA after 1:1 mixing, 5 nM Cy5-RNA, partner 2 uM final, 30 min at room temperature, measured at 25 C; details: protein: recombinant;recombinant; tags: His6-SUMO removed by Ulp1;His6-SUMO removed by Ulp1; N-terminal Ser (residue 54) from BamHI site; copies: 1;1; label: 5'-Cy5
DND1 H189A;NANOS3 ZF+C, sequence (P60323 55-173, stated change not applied, one chain of several): as the sequence (P60323 55-173, chain 2 of 2, one chain of several) above

DND1 F93A;NANOS3 ZF+C = DND1 F93A;NANOS3 ZF+C (human;human, UniProt Q8IYX4;P60323 1-230;55-173, F93A|); test: as above; details: protein: recombinant;recombinant; tags: His6-SUMO removed by Ulp1;His6-SUMO removed by Ulp1; N-terminal Ser (residue 54) from BamHI site; copies: 1;1; label: 5'-Cy5
DND1 F93A;NANOS3 ZF+C, sequence (Q8IYX4 1-230 F93A, chain 1 of 2): as the sequence (Q8IYX4 1-230 K196A, chain 1 of 2) above, with F93A, A196K counted along it
DND1 F93A;NANOS3 ZF+C, sequence (P60323 55-173, chain 2 of 2): as the sequence (P60323 55-173, chain 2 of 2, one chain of several) above

B1: D1mut (ssRNA)
RNA: AUGCCAAUUU
Kd (DND1 1-230 (RRM1-RRM2)): 15 ± 4.7 µM
Kd [1]: 15 ± 7.7 µM

B2: G3C (ssRNA)
RNA: AUAUCAAUUU
Kd (DND1 K196A;NANOS3 ZF+C): 0.31 ± 0.09 µM

B3: G3A (ssRNA)
RNA: AUAUAAAUUU
Kd (DND1 K196A;NANOS3 ZF+C): 0.17 ± 0.04 µM

B4: D1-N3mut (ssRNA)
RNA: AUGCCACUCU
Kd (DND1 1-230 (RRM1-RRM2)): 11 ± 2.1 µM
Kd [1]: 12 ± 3 µM

B5: CDK1 N3-DRE (Cy5) (ssRNA)
RNA: AUAUGAAUUU
Kd (DND1 13-230 (del1-12)): 3.7 ± 1.4 µM
Kd [2]: 4 ± 2.4 µM
Kd (DND1 H189A;NANOS3 ZF+C): 0.16 ± 0.05 µM
Kd (DND1 F93A;NANOS3 ZF+C): 1.1 ± 0.4 µM

B6: N3mut (ssRNA)
RNA: AUAUGACUCU
Kd (DND1 1-230 (RRM1-RRM2)): 6.4 ± 3.8 µM
Kd [1]: 2.7 ± 1.1 µM

B7: spacer (ssRNA)
RNA: AUAUGACCCAUUU
Kd (DND1 1-230 (RRM1-RRM2)): 8.2 ± 3.6 µM

B8: G3U (ssRNA)
RNA: AUAUUAAUUU
Kd (DND1 K196A;NANOS3 ZF+C): 0.13 ± 0.02 µM
